The values that follow come from patent publication US20210347873A1 (SHANGHAI PHARMAEXPLORER, published 2021).

Like-named read-outs stand apart in the source and are kept apart here.

Experiment [1] concerns the target T1, extracellular domain of human BLyS protein (hBLyS-ECD), His-tagged, Ala134-Leu285 (human, UniProt Q9Y275 134-285). The experiment in a line: cell-based or functional assay.
Experiment [2] concerns the target T1, extracellular domain of human BLyS …. In words: SPR (Biacore), antibody captured by anti-human Fc, hBLyS-ECD as analyte. A general note: SPR reads the build-up and loss of mass on a sensor chip optically.
In experiment [3] the target is T2, biotinylated hBLyS-ECD (human, UniProt Q9Y275 134-285, biotinylated with Biotin-X-X-NHS (molar ratio 7:1); sites not stated).
T2 construct: also called biotinylated immunogen; biotinylated hBLvS-ECD
The experiment in a line: ELISA on captured biotinylated hBLyS-ECD; antibody 0.00427 nM. On the technique in general: An ELISA detects its analyte on a solid surface through an enzyme-linked reagent.

For experiment [4], the target named is T2, biotinylated hBLyS-ECD. In words: BAFF R-coated ELISA, biotinylated hBLyS-ECD bound in presence of antibody 0.16 nM.
The target of experiment [5] is T2, biotinylated hBLyS-ECD. In words: ELISA on captured biotinylated hBLyS-ECD; antibody 0.534 nM.
Experiment [6] deals with T2, biotinylated hBLyS-ECD. In words: ELISA on captured biotinylated hBLyS-ECD; antibody 0.0213 nM.
Experiment [7] addresses T2, biotinylated hBLyS-ECD. In words: BAFF R-coated ELISA, biotinylated hBLyS-ECD bound in presence of antibody 20 nM.
The target of experiment [8] is T2, biotinylated hBLyS-ECD. In words: BAFF R-coated ELISA, biotinylated hBLyS-ECD bound in presence of antibody 0 nM.
For experiment [9], the target named is T2, biotinylated hBLyS-ECD. In words: BAFF R-coated ELISA, biotinylated hBLyS-ECD bound in presence of antibody 0.8 nM.
The target in experiment [10] is T2, biotinylated hBLyS-ECD. The experiment in a line: ELISA on captured biotinylated hBLyS-ECD; antibody 0.107 nM.
Experiment [11] concerns the target T2, biotinylated hBLyS-ECD. In words: ELISA on captured biotinylated hBLyS-ECD; antibody 66.7 nM.
The target in experiment [12] is T2, biotinylated hBLyS-ECD. In words: BAFF R-coated ELISA, biotinylated hBLyS-ECD bound in presence of antibody 100 nM.
Experiment [13] addresses T2, biotinylated hBLyS-ECD. The experiment in a line: BAFF R-coated ELISA, biotinylated hBLyS-ECD bound in presence of antibody 0.032 nM.
Experiment [14] has as its target T2, biotinylated hBLyS-ECD. The experiment in a line: BAFF R-coated ELISA, biotinylated hBLyS-ECD bound in presence of antibody 0.0064 nM.
Experiment [15] has as its target T2, biotinylated hBLyS-ECD. The experiment in a line: ELISA on captured biotinylated hBLyS-ECD; antibody 0 nM (background).
Experiment [16] addresses T2, biotinylated hBLyS-ECD. In words: BAFF R-coated ELISA, biotinylated hBLyS-ECD bound in presence of antibody 4 nM.
Experiment [17] addresses T1, extracellular domain of human BLyS …. In words: SPR (Biacore), antibody captured by anti-human Fc, hBLyS-ECD as analyte. As for the experimental part:
Affinity constants were determined using a Biacore X100 instrument (purchased from GE Healthcare). Detailed operations and methods referred to the instrument manuals and detailed methods provided by manufacturers, specifically: determining affinity constant using a CM5 chip (Sensor Chip CM5, purchased from GE Healthcare). […] Then 1 M ethanolamine was injected in chip to block the remaining activation sites. After the antibody to be tested (i.e., the human BLyS antibody prepared by Embodiment 2) was captured by chip, 7 different gradient of immunogen dilutions (i.e., hBLyS-ECD) prepared by Embodiment 1 were injected and the binding and dissociation of antigen with antibody was detected by a Biacore instrument. The dissociation constant and binding constant were then fitted by Biacore X100 Evaluation Software 2.0, while the affinity constant was the ratio of dissociation constant to binding constant.
The binding and dissociation between antibody and antigen was detected by Biacore.
The source holds these as a separate data set.

In experiment [18] the target is T2, biotinylated hBLyS-ECD. In words: ELISA on captured biotinylated hBLyS-ECD; antibody 2.67 nM.
For experiment [19], the target named is T2, biotinylated hBLyS-ECD. The experiment in a line: ELISA on captured biotinylated hBLyS-ECD; antibody 13.3 nM.

As a reminder, the Kd is the free concentration of one partner at which half of the binding sites on the other are occupied at equilibrium, for simple one-to-one binding. Read a low Kd as higher affinity. As a reminder, the koff is a measure of how fast the partners let go of each other. Higher therefore signals a short-lived complex. Usually kon stands for the second-order rate constant of association. A high value points to faster complex formation.

T2 sequence (Q9Y275 134-285): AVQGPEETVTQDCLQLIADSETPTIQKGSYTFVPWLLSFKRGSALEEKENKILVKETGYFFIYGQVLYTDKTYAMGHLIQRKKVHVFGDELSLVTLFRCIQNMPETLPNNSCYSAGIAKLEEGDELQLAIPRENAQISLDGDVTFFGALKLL
T1 sequence (Q9Y275 134-285): as above

B1: 2-1G11 (antibody, V domains shown)
VH: EVQLVESRGGVVQPGRSLRLSCAASGFTFSSYGMHWVRQAPGKGLEWVAVISYDGSNKYYADSVKGRFTISRDNSKNTLYLQMNSLRAEDAAVYYCARDRVDILTGYSIYGMDVWGQGTTVTVSS
VL: EIVMTQSPATLSLSPGERATLSCRASQSVSSYLAWYQQKPGQAPRLLIYDASKRATGIPARFSGSGSGTDFTLTISSLEPEDFAVYYCQQRSNWPLTFGGGTKVEIK
As for B1, the “Proportion of B lymphocytes in splenocytes (%), in vivo in mice” value in experiment [1] was 25.6%.

B2: c35E6F7C3 (antibody, V domains shown)
VH: EVQLQQSGAELVKPGASVKLSCTAAGFNIQDTYIHWVKQRPEQGLEWIGRIDPANANTVYDPKFQGKATITADTSSNTAYLQVSSLTSEDTAVYYCASPVITAGFAYWGQGTLVTVSA
VL: QIVLTQSPAIMSASPGEKVTMTCGASSSVNYVHWYQQKSGTSPKRWIYDTSKLASGVPARFSGSGSGTSYSLTISSMEAEDAATYYCQQWTRSPLTFGAGTKVELK
In [2], B2 showed a Kd of 1.45 nM, a koff of 0.000277 s⁻¹ and a kon of 190000 M⁻¹ s⁻¹. The “Proportion of B lymphocytes in splenocytes (%), in vivo in mice” value in experiment [1] amounted to 30.5%.

B3: h8E7D9C7F5-1 (antibody, V domains shown)
VH: EVQLVQSGAEVKKPGASVKVSCKASGYTFTSYGISWVRQAPGQGLEWMGEIYPRSGNTYYNEKFKGRVTMTTDTSTSTAYMELRSLRSDDTAVYYCARSGPITTLVATDYGMDYWGQGTTVTVSS
VL: DIVMTQSPDSLAVSLGERATINCRASKSVSTSSYSYMHWYQQKPGQPPKLLIKFASNLESGVPDRFSGSGSGTDFTLTISSLQAEDVAVYYCQHSREFPYTFGGGTKVEIK
notes: Humanized antibody; also called humanized BLyS antibody h8E7D9C7F5 variant 1 (VH.1 / Vk.1)
Take B3: the OD450 nm in experiment [3] is 0.195 OD450 nm; in experiment [4] it was 1.78 OD450 nm; in experiment [5], 1.88 OD450 nm; in experiment [6] it was 0.499 OD450 nm; in [7], 0.721 OD450 nm; in experiment [8] it was 2.05 OD450 nm. Further, the OD450 nm came to 1.54 OD450 nm in experiment [9]; 1.35 OD450 nm in experiment [10]; 2.3 OD450 nm in [11]; 0.45 OD450 nm in experiment [12]; 1.87 OD450 nm in experiment [13]; 1.98 OD450 nm in [14]. Moreover, the OD450 nm in experiment [15] is 0.129 OD450 nm; in experiment [16], 1.11 OD450 nm; in experiment [18], 2.18 OD450 nm; in [19], 2.2 OD450 nm. For the same molecule, in experiment [17], the Kd is 4.33 nM. Also, the koff in [17] was determined as 0.000942 s⁻¹. In experiment [17], this molecule yielded a kon of 218000 M⁻¹ s⁻¹.

B4: h97A3C2H4-9 (antibody, V domains shown)
VH: EVQLVESGGGLVQPGGSLRLSCAASGFTFSTYTMSWVRQAPGKRLEWVAYISYGGGSTSYPDTVKGRFTISRDNAKNSLYLQMNSLRAEDTAVYYCTRHVTVVENSMDYWGQGTTVTVSS
VL: DILLTQSPDFQSVTPKEKVTITCRASQSIGTSIHWYQQKTDQSPKLLIKYVSESFSGTPSRFSGSGSGTDFTLTINSLEAEDAATYYCQQTHSWPWTFGGGTKVEIK
notes: Humanized antibody; VH3-7/JH6 CDR-grafted with A93T, G44R; also called humanized BLyS antibody h97A3C2H4 variant 9 (VH.1b / Vk.1d)
For the molecule B4, the OD450 nm in experiment [3] is 0.179 OD450 nm; in [4], 1.81 OD450 nm; in [5], 1.88 OD450 nm; in experiment [6], 0.372 OD450 nm; in [7], 0.748 OD450 nm; in [8] it was 1.94 OD450 nm. Further, the OD450 nm amounted to 1.56 OD450 nm in [9]; 1.02 OD450 nm in experiment [10]; 2.37 OD450 nm in experiment [11]; 0.506 OD450 nm in [12]; 1.98 OD450 nm in [13]; 1.96 OD450 nm in experiment [14]. In addition, the OD450 nm turned out to be 0.198 OD450 nm in [15], 1.13 OD450 nm in experiment [16], 2.24 OD450 nm in experiment [18] and 2.27 OD450 nm in experiment [19]. In addition, in experiment [17], the Kd is 1.88 nM. In experiment [17], the off-rate constant (koff) is 0.000216 s⁻¹. For the same molecule, in experiment [17], the kon came to 115000 M⁻¹ s⁻¹.
